# According to US20180155451A1 (published 2018):
# T1: FcγRIIb extracellular domain with C-terminal His tag (human, UniProt P31994 43-217)
# T1 construct: extracellular domain; Expressed in FreeStyle293 cells; analyte in the Biacore assay; also called FcgRIIb; 2b; not shown: His tag at the C terminus
# T1 sequence (looked up): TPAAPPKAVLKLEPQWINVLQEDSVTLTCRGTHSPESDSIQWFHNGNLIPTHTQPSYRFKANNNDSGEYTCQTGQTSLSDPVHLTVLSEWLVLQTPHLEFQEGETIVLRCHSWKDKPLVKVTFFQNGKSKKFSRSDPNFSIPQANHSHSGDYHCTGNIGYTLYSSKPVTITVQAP
# B1: GpH7-A5/GpH7-B3 variant E269_12R/GpL16-k0 (He Ab) (antibody, human IgG1, kappa)
# heavy 1: not shown
# heavy 2: not shown
# light: DIVMTQSPLSLPVTPGEPASISCQASESLVHSNRNTYLHWYLQKPGQSPQLLIYKVSNRFSGVPDRFSGSGSGTDFTLKISRVEAEDVGVYYCSQNTHVPPTFGQGTKVEIERTVAAPSVFIFPPSDEQLKSGTASVVCLLNNFYPREAKVQWKVDNALQSGNSQESVTEQDSKDSTYSLSSTLTLSKADYEKHKVYACEVTHQGLSSPVTKSFNRGEC
# notes: Heterodimerized anti-glypican-3 IgG1; the mutation stands in the GpH7-B3 chain only
# B2: GpH7-A5/GpH7-B3 variant S324_02A/GpL16-k0 (He Ab) (antibody, human IgG1, kappa)
# heavy 1: not shown
# heavy 2: not shown
# light: B1 light
# notes: as for B1
# B3: GpH7-A5/GpH7-B3 variant H268_08L/GpL16-k0 (He Ab) (antibody, human IgG1, kappa)
# heavy 1: not shown
# heavy 2: not shown
# light: B1 light
# notes: as for B1
# B4: GpH7-A5/GpH7-B3 variant E269_02A/GpL16-k0 (He Ab) (antibody, human IgG1, kappa)
# heavy 1: not shown
# heavy 2: not shown
# light: B1 light
# notes: as for B1
# B5: GpH7-A5/GpH7-B3 variant H268_11K/GpL16-k0 (He Ab) (antibody, human IgG1, kappa)
# heavy 1: not shown
# heavy 2: not shown
# light: B1 light
# notes: as for B1
# B6: GpH7-A5/GpH7-B3 variant E269_07I/GpL16-k0 (He Ab) (antibody, human IgG1, kappa)
# heavy 1: not shown
# heavy 2: not shown
# light: B1 light
# notes: as for B1
# B7: GpH7-A5/GpH7-B3 variant E269_05P/GpL16-k0 (He Ab) (antibody, human IgG1, kappa)
# heavy 1: not shown
# heavy 2: not shown
# light: B1 light
# notes: as for B1
# B8: GpH7-A5/GpH7-B3 variant E269_18N/GpL16-k0 (He Ab) (antibody, human IgG1, kappa)
# heavy 1: not shown
# heavy 2: not shown
# light: B1 light
# notes: as for B1
# B9: GpH7-A5/GpH7-B3 variant E269_16H/GpL16-k0 (He Ab) (antibody, human IgG1, kappa)
# heavy 1: not shown
# heavy 2: not shown
# light: B1 light
# notes: as for B1
# B10: GpH7-A5/GpH7-B3 variant S298_19Q/GpL16-k0 (He Ab) (antibody, human IgG1, kappa)
# heavy 1: not shown
# heavy 2: not shown
# light: B1 light
# notes: as for B1
# B11: GpH7-A5/GpH7-B3 variant K326_12R/GpL16-k0 (He Ab) (antibody, human IgG1, kappa)
# heavy 1: not shown
# heavy 2: not shown
# light: B1 light
# notes: as for B1
# B12: GpH7-A5/GpH7-B3 variant H268_14T/GpL16-k0 (He Ab) (antibody, human IgG1, kappa)
# heavy 1: not shown
# heavy 2: not shown
# light: B1 light
# notes: as for B1
# B13: GpH7-A5/GpH7-B3 variant S324_03V/GpL16-k0 (He Ab) (antibody, human IgG1, kappa)
# heavy 1: not shown
# heavy 2: not shown
# light: B1 light
# notes: as for B1
# B14: GpH7-A5/GpH7-B3 variant E269_06M/GpL16-k0 (He Ab) (antibody, human IgG1, kappa)
# heavy 1: not shown
# heavy 2: not shown
# light: B1 light
# notes: as for B1
# B15: GpH7-A5/GpH7-B3 variant E269_03V/GpL16-k0 (He Ab) (antibody, human IgG1, kappa)
# heavy 1: not shown
# heavy 2: not shown
# light: B1 light
# notes: as for B1
# B16: GpH7-A5/GpH7-B3 variant Y300_01G/GpL16-k0 (He Ab) (antibody, human IgG1, kappa)
# heavy 1: not shown
# heavy 2: not shown
# light: B1 light
# notes: as for B1
# B17: GpH7-A5/GpH7-B3 variant E269_11K/GpL16-k0 (He Ab) (antibody, human IgG1, kappa)
# heavy 1: not shown
# heavy 2: not shown
# light: B1 light
# notes: as for B1
# B18: GpH7-A5/GpH7-B3 variant E269_15Y/GpL16-k0 (He Ab) (antibody, human IgG1, kappa)
# heavy 1: not shown
# heavy 2: not shown
# light: B1 light
# notes: as for B1
# B19: GpH7-A5/GpH7-B3 variant S324_07I/GpL16-k0 (He Ab) (antibody, human IgG1, kappa)
# heavy 1: not shown
# heavy 2: not shown
# light: B1 light
# notes: as for B1
# B20: GpH7-A5/GpH7-B3 variant E269_13S/GpL16-k0 (He Ab) (antibody, human IgG1, kappa)
# heavy 1: not shown
# heavy 2: not shown
# light: B1 light
# notes: as for B1
# B21: GpH7-A5/GpH7-B3 variant E269_04F/GpL16-k0 (He Ab) (antibody, human IgG1, kappa)
# heavy 1: not shown
# heavy 2: not shown
# light: B1 light
# notes: as for B1
# B22: GpH7-A5/GpH7-B3 variant S298_20W/GpL16-k0 (He Ab) (antibody, human IgG1, kappa)
# heavy 1: not shown
# heavy 2: not shown
# light: B1 light
# notes: as for B1
# Molecular target: T2, FcγRIa extracellular domain with C-terminal His tag (human, UniProt P12314 16-292)
# T2 construct: extracellular domain; Expressed in FreeStyle293 cells; analyte in the Biacore assay; also called FcgRI; 1a; not shown: His tag at the C terminus
# T2 sequence (P12314 16-292): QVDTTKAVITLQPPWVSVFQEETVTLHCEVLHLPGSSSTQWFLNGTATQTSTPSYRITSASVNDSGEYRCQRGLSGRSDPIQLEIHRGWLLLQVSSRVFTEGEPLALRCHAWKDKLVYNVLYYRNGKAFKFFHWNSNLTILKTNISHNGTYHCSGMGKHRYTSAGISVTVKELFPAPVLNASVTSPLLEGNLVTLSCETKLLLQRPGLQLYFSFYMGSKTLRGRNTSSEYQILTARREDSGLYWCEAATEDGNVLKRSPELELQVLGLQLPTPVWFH
# Assay: SPR (Biacore), antibody captured on antigen-peptide chip, FcγR as analyte; relative binding
row,He/Con_1a,Binder
1,97.1 % of GpH7-A5/GpH7-B3/GpL16-k0 (=100),B1
2,103 % of GpH7-A5/GpH7-B3/GpL16-k0 (=100),B2
3,107 % of GpH7-A5/GpH7-B3/GpL16-k0 (=100),B3
4,104 % of GpH7-A5/GpH7-B3/GpL16-k0 (=100),B4
5,106 % of GpH7-A5/GpH7-B3/GpL16-k0 (=100),B5
6,103 % of GpH7-A5/GpH7-B3/GpL16-k0 (=100),B6
7,102 % of GpH7-A5/GpH7-B3/GpL16-k0 (=100),B7
8,102 % of GpH7-A5/GpH7-B3/GpL16-k0 (=100),B8
9,106 % of GpH7-A5/GpH7-B3/GpL16-k0 (=100),B9
10,109 % of GpH7-A5/GpH7-B3/GpL16-k0 (=100),B10
11,100 % of GpH7-A5/GpH7-B3/GpL16-k0 (=100),B11
12,112 % of GpH7-A5/GpH7-B3/GpL16-k0 (=100),B12
13,104 % of GpH7-A5/GpH7-B3/GpL16-k0 (=100),B13
14,104 % of GpH7-A5/GpH7-B3/GpL16-k0 (=100),B14
15,103 % of GpH7-A5/GpH7-B3/GpL16-k0 (=100),B15
16,116 % of GpH7-A5/GpH7-B3/GpL16-k0 (=100),B16
17,95.2 % of GpH7-A5/GpH7-B3/GpL16-k0 (=100),B17
18,106 % of GpH7-A5/GpH7-B3/GpL16-k0 (=100),B18
19,102 % of GpH7-A5/GpH7-B3/GpL16-k0 (=100),B19
20,103 % of GpH7-A5/GpH7-B3/GpL16-k0 (=100),B20
21,103 % of GpH7-A5/GpH7-B3/GpL16-k0 (=100),B21
22,104 % of GpH7-A5/GpH7-B3/GpL16-k0 (=100),B22

# Molecular target: T1, FcγRIIb extracellular domain with …
# Assay: as above
row,He/Con_2b,Binder
1,25.2 % of GpH7-A5/GpH7-B3/GpL16-k0 (=100),B1
2,78.3 % of GpH7-A5/GpH7-B3/GpL16-k0 (=100),B2
3,67.8 % of GpH7-A5/GpH7-B3/GpL16-k0 (=100),B3
4,49.9 % of GpH7-A5/GpH7-B3/GpL16-k0 (=100),B4
5,83 % of GpH7-A5/GpH7-B3/GpL16-k0 (=100),B5
6,43.9 % of GpH7-A5/GpH7-B3/GpL16-k0 (=100),B6
7,52.6 % of GpH7-A5/GpH7-B3/GpL16-k0 (=100),B7
8,44.8 % of GpH7-A5/GpH7-B3/GpL16-k0 (=100),B8
9,38.5 % of GpH7-A5/GpH7-B3/GpL16-k0 (=100),B9
10,73.3 % of GpH7-A5/GpH7-B3/GpL16-k0 (=100),B10
11,89.2 % of GpH7-A5/GpH7-B3/GpL16-k0 (=100),B11
12,86 % of GpH7-A5/GpH7-B3/GpL16-k0 (=100),B12
13,97.8 % of GpH7-A5/GpH7-B3/GpL16-k0 (=100),B13
14,46.7 % of GpH7-A5/GpH7-B3/GpL16-k0 (=100),B14
15,45.1 % of GpH7-A5/GpH7-B3/GpL16-k0 (=100),B15
16,48.4 % of GpH7-A5/GpH7-B3/GpL16-k0 (=100),B16
17,17.8 % of GpH7-A5/GpH7-B3/GpL16-k0 (=100),B17
18,44.7 % of GpH7-A5/GpH7-B3/GpL16-k0 (=100),B18
19,95.7 % of GpH7-A5/GpH7-B3/GpL16-k0 (=100),B19
20,47.8 % of GpH7-A5/GpH7-B3/GpL16-k0 (=100),B20
21,45 % of GpH7-A5/GpH7-B3/GpL16-k0 (=100),B21
22,41.1 % of GpH7-A5/GpH7-B3/GpL16-k0 (=100),B22
